Reference: paper PMC7323874, “Vancomycin Resistance Is Overcome by Conjugation of Polycationic Peptides” (Angewandte Chemie (International Ed. in English), 2020)

What was measured:
[1] = Molecular imaging (PET, scintigraphy) and biodistribution of radiolabeled compounds; assay type: in vivo, female Wistar rats; conditions: for scintigraphy, distribution and excretion: i.v.
Procedure: Biodistribution and pharmacokinetic studies
The biodistribution and pharmacokinetic studies were performed with radiolabeled (124I/125I) compounds. For this radiolabeling strategy, a D-tyrosine-modified derivative was synthesized, which enabled the […] substitution. The D-tyrosine was located at the N-terminus of the respective peptide. Vancomycin was radiolabeled without any further structural modification. For radiolabeling, a 1 mM stock solution of phosphate buffer/dimethyl sulfoxide was prepared as described previously by Uhl et al.12 The required amount of radioactive iodine-124 (124I) or rather iodine-125 (125I) was added to a mixture of 25 µl of the stock solution and 25 µl of a phosphate buffer (0.25 mM; pH 7.5). Radiolabeling was performed using the chloramine T method as previously described by Crim et al.13 The labeled compound was purified by semi-preparative HPLC. Analysis was done by radio-HPLC (Agilent 1100 series) using a Chromolith® Performance RP-18e, 100–3 mm column applying a linear gradient of 0.1% TFA in water (eluent A) to 0.1% TFA in acetonitrile (eluent B) within 5 min; flow rate 2 ml/min; UV absorbance λ = 214 nm; γ-detection. The animal trials were approved by the Animal Care and Use committees at the Regierungspräsidium Karlsruhe, Germany. Adult, female, Wistar rats (200 – 250 g) were purchased from Janvier Labs (Le Genest-Saint-Isle, France). The animals were anaesthetized by isoflurane inhalation and appropriate amounts of the 124I/125I labelled peptides, dissolved in 100 µl of 0.9% NaCl were injected into the tail vein. For PET-imaging, an Inveon small animal PET scanner (Siemens) was used. Therefore, the animals were sacrificed 10 min or 60 min after injection of the radiolabeled compound and images were taken afterwards. The scintigraphic images were obtained using a γ-camera (Gamma Imager, Biospace, France). Cumulative images from 0–10 min, 60–70 min and 120–130 min after injection, were taken. For the biodistribution studies, the animals were sacrificed at certain time points, the organs were removed and weighed and the radioactivity of each sample was measured using a Cobra Auto γ-Counter, (Packard Bioscience, USA) in comparison with standards. The tissue-associated activity was related to the total injected dose (ID) and expressed as a percentage of the total injected dose per gram of tissue (%ID/g).
In vivo infection experiments
Animal studies were approved by the local government of Lower Franconia, Germany (approval number 55.2-2532-2-57) and performed in strict accordance with the guidelines for animal care and experimentation of German Animal Protection Law and the DIRECTIVE […]
For the in vivo experiments, we applied S. aureus strain USA300 LAC* lux, which was constructed by transducing the luxABCDE operon from S. aureus Xen29 (PerkinElmer, Waltham, MA, USA) with phage φ11 into S. aureus LAC* (AH2163).14 Overnight cultures of S. aureus USA300 LAC* lux in BHI medium were diluted to a final OD600 nm of 0.05 in 50 ml fresh BHI medium and grown for 3.5 hours at 37 °C. After centrifugation, the cell pellet was resuspended in BHI with 20 % glycerol, aliquoted and stored at -80 °C. For the generation of in vivo infection inocula, aliquots were thawed and washed twice with PBS. The desired bacterial concentration (5 x 10^7 CFU/100 µl) was then adjusted based on the respective OD600 nm values. A sample of the infection inoculum was plated on TSB agar plates in order to control the infection dose.
Female Balb/c mice (6 weeks, Janvier Labs, Le Genest-Saint-Isle, France) were used for all experiments.
Mice were infected by intravenous application of the bacterial inoculum via the tail vein. Treatment started at 2 hours p.i. and following doses were applied every 12 hours. The vancomycin group received 30 mg/kg body weight/ per day, the FU002 group received 56.4 mg/kg body weight/per day, the control group received equal amounts of sterile PBS at the respective time points. The mice were […]

[2] = tested on: human erythrocytes; assay: Hemolysis assay; assay type: cell-based; conditions: up to a concentration of 640 µg/ml; 120 min at 37 °C; absorption at 554 nm; 1% Triton X-100 as positive control
Procedure: For hemolysis studies, blood from four different, fasted men were taken to determine the hemoglobin release. Erythrocytes were purified centrifuging blood at 2500 rpm for 3 min. The remaining pellet was washed with PBS and centrifuged again. This process was repeated until the supernatant remained clear.
For the hemolysis assay, v-bottom plates were used. FU002 was tested in duplicates in three different assays. As positive control, a 1% Triton® in 0.9%-NaCl solution was used.
FU002 was serial diluted on the plate, resulting in 50 µl of a final concentration of 640 µg/ml to 1.25 µg/ml. Every well contained 50 µl of the purified erythrocytes. […] 50 µl of the supernatant were transferred to a flat-bottom plate and absorption was measured at 554 nm.
Hemolysis was calculated as followed: […]
Cobra Auto γ-Counter, (Packard Bioscience, USA) in comparison with standards. The tissue-associated activity was related to the total injected dose (ID) and expressed as a percentage of the total injected dose per gram of tissue (%ID/g). […]
Mice were infected by intravenous application of the bacterial inoculum via the tail vein. […] During infection, mice were scored twice daily and sacrificed at day 4 post infection and livers harvested. […] Significant differences in the CFU of the livers were determined with Kruskal-Wallis test (software: GraphPad Prism 5.0).

[3] = 125I-labeled compounds (FU002 as 125I-FU002y), 10 min post injection
[4] = 125I-labeled compounds (FU002 as D-Tyr derivative), 60 min post injection

SMILES	PET imaging, distribution and excretion ([1]; 124I-labeled compounds, i.v. tail vein, 10 min post injection)	scintigraphy, distribution and excretion [1, 3]	scintigraphy, distribution and excretion [1, 4]	hemolytic activity [2]	biodistribution, organ uptake ([1]; 125I-labeled, 10 min post injection, compared with vancomycin)	biodistribution, retention in organ ([1]; 125I-labeled, after 1 hour, compared with vancomycin)
CN[C@H](CC(C)C)C(=O)N[C@H]1C(=O)N[C@@H](CC(N)=O)C(=O)N[C@H]2C(=O)N[C@H]3C(=O)N[C@H](C(=O)N[C@H](C(=O)O)c4cc(O)cc(O)c4-c4cc3ccc4O)[C@H](O)c3ccc(c(Cl)c3)Oc3cc2cc(c3O[C@@H]2O[C@H](CO)[C@@H](O)[C@H](O)[C@H]2O[C@H]2C[C@](C)(N)[C@H](O)[C@H](C)O2)Oc2ccc(cc2Cl)[C@H]1O [vancomycin]	renal excretion	fast, renal excretion	almost completely excreted and only found in the bladder	no relevant hemolytic activity		
CC(C)C[C@H](C(=O)N[C@H]1C(=O)N[C@@H](CC(N)=O)C(=O)N[C@H]2C(=O)N[C@H]3C(=O)N[C@H](C(=O)N[C@H](C(=O)O)c4cc(O)cc(O)c4-c4cc3ccc4O)[C@H](O)c3ccc(c(Cl)c3)Oc3cc2cc(c3O[C@@H]2O[C@H](CO)[C@@H](O)[C@H](O)[C@H]2O[C@H]2C[C@](C)(N)[C@H](O)[C@H](C)O2)Oc2ccc(cc2Cl)[C@H]1O)N(C)C(=O)C1CCC(CN2C(=O)CC(SC[C@H](NC(=O)[C@H](CCCNC(=N)N)NC(=O)[C@H](CCCNC(=N)N)NC(=O)[C@H](CCCNC(=N)N)NC(=O)[C@H](CCCNC(=N)N)NC(=O)[C@H](CCCNC(=N)N)NC(=O)[C@@H](N)CCCNC(=N)N)C(N)=O)C2=O)CC1 (stereo partly drawn) [FU002]		directs in the liver and the kidneys	much slower excretion	no relevant hemolytic activity	much higher organ uptake	remains much longer in the corresponding organ
